Test results taken from paper PMC3074190 (Molecular carcinogenesis, 2010).
One block for each binder: values may come before it.

Key:
[1] = molecular target: β-catenin bait (BD fusion) (human) (UniProt P35222); experiment: two-hybrid
GST-β-catenin-S37A = molecular target: T1, GST-β-catenin-S37A (human, UniProt P35222 1-781, S37A); experiment: pull-down
T1 sequence (looked up): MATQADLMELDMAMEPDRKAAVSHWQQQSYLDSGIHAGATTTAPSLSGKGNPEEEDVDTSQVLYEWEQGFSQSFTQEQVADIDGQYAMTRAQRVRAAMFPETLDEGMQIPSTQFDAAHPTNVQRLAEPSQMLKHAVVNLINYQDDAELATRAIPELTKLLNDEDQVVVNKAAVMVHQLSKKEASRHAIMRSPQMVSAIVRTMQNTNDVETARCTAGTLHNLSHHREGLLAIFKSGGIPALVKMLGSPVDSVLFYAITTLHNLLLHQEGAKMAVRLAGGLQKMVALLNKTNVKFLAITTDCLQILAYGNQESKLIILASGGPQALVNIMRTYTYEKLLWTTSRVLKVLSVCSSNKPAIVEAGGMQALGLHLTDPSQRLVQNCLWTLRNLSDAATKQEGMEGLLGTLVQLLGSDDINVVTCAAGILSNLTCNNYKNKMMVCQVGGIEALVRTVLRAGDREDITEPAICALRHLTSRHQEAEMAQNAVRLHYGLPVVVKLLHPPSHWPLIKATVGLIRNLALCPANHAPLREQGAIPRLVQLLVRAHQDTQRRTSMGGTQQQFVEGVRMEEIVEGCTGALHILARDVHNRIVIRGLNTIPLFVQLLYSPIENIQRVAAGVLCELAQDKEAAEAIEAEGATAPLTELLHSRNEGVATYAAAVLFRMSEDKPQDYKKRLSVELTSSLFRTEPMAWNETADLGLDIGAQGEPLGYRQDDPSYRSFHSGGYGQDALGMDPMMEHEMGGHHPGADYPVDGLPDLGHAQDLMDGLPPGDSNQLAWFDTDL

fold increase of the two-hybrid signal with 1,25D over vehicle [1]: 12 fold | fold increase of the two-hybrid signal with LCA over vehicle [1]: 8 fold
B1: VDR prey (AD fusion), wild type (natural protein)
chain: MEAMAASTSLPDPGDFDRNVPRICGVCGDRATGFHFNAMTCEGCKGFFRRSMKRKALFTCPFNGDCRITKDNRRHCQACRLKRCVDIGMMKEFILTDEEVQRKREMILKRKEEEALKDSLRPKLSEEQQRIIAILLDAHHKTYDPTYSDFCQFRPPVRVNDGGGSHPSRPNSRHTPSFSGDSSSSCSDHCITSSDMMDSSSFSNLDLSEEDSDDPSVTLELSQLSMLPHLADLVSYSIQKVIGFAKMIPGFRDLTSEDQIVLLKSSAIEVIMLRSNESFTMDDMSWTCGNQDYKYRVSDVTKAGHSLELIEPLIKFQVGLKKLNLHEEEHVLLMAICIVSPDRPGVQDAALIEAIQDRLSNTLQTYIRCRHPPPGSHLLYAKMIQKLADLRSLNEEHSKQYRCLSFQPECSMKLTPLVLEVFGNEIS

band intensity with GST-β-catenin, fold over GST-only control (GST-β-catenin-S37A): 7.1 fold
B2: VDR Δ1–88, N-terminally truncated VDR, 35S-methionine labelled (domain or fragment, human, UniProt P11473 89-427, looked up)
chain: MMKEFILTDEEVQRKREMILKRKEEEALKDSLRPKLSEEQQRIIAILLDAHHKTYDPTYSDFCQFRPPVRVNDGGGSHPSRPNSRHTPSFSGDSSSSCSDHCITSSDMMDSSSFSNLDLSEEDSDDPSVTLELSQLSMLPHLADLVSYSIQKVIGFAKMIPGFRDLTSEDQIVLLKSSAIEVIMLRSNESFTMDDMSWTCGNQDYKYRVSDVTKAGHSLELIEPLIKFQVGLKKLNLHEEEHVLLMAICIVSPDRPGVQDAALIEAIQDRLSNTLQTYIRCRHPPPGSHLLYAKMIQKLADLRSLNEEHSKQYRCLSFQPECSMKLTPLVLEVFGNEIS
modifications: 35S-methionine labelled

band intensity with GST-β-catenin, fold over GST-only control (GST-β-catenin-S37A): 8.3 fold
B3: human vitamin D receptor, full-length wild type (F/M4 allele), 35S-methionine labelled (natural protein, UniProt P11473 4-427, looked up)
chain: MAASTSLPDPGDFDRNVPRICGVCGDRATGFHFNAMTCEGCKGFFRRSMKRKALFTCPFNGDCRITKDNRRHCQACRLKRCVDIGMMKEFILTDEEVQRKREMILKRKEEEALKDSLRPKLSEEQQRIIAILLDAHHKTYDPTYSDFCQFRPPVRVNDGGGSHPSRPNSRHTPSFSGDSSSSCSDHCITSSDMMDSSSFSNLDLSEEDSDDPSVTLELSQLSMLPHLADLVSYSIQKVIGFAKMIPGFRDLTSEDQIVLLKSSAIEVIMLRSNESFTMDDMSWTCGNQDYKYRVSDVTKAGHSLELIEPLIKFQVGLKKLNLHEEEHVLLMAICIVSPDRPGVQDAALIEAIQDRLSNTLQTYIRCRHPPPGSHLLYAKMIQKLADLRSLNEEHSKQYRCLSFQPECSMKLTPLVLEVFGNEIS
modifications: 35S-methionine labelled
